What was measured:
[1] = molecular target: GPR158 (residues 1–863) (human) (UniProt Q5T848); assay: cryo-EM structure; GPR158 (1-863), RGS7-Flag and Gβ5 co-expressed, co-purified by anti-Flag resin and Superose 6 in LMNG/CHS, treated with 0.1% OG; 2:1:1 and 2:2:2 complexes sorted from one sample
apo GPR158 (human) = apo GPR158 (human) (UniProt Q5T848); assay: cryo-EM structure; apo GPR158 in 20 mM HEPES pH 7.5, 200 mM NaCl, 0.01% LMNG, 0.001% CHS, 5 mM EDTA, with 0.1% OG added; 12.7 mg/ml
[2] = molecular target: the molecule itself; assay: cryo-EM structure; GPR158 (1-863), RGS7-Flag and Gβ5 co-expressed, co-purified by anti-Flag resin and Superose 6 in LMNG/CHS, treated with 0.1% OG; 2:1:1 and 2:2:2 complexes sorted from one sample

Molecule: RGS7–Gβ5 heterodimer (from UniProt P49802 1-495; O14775 1-395) (complex)
- stoichiometry N (RGS7–Gβ5 heterodimer per GPR158 dimer) [1]: 1
- stoichiometry N (RGS7–Gβ5 heterodimers per GPR158 dimer) [1]: 2

Molecule: apo GPR158 (from UniProt Q5T848 24-710) (receptor)
- stoichiometry N (apo GPR158 (human)): 2 protomers

B1: GPR158 (residues 1–863) (receptor, human, UniProt Q5T848 24-863, looked up)
chain: ASRDPQGRPDSPRERTPKGKPHAQQPGRASASDSSAPWSRSTDGTILAQKLAEEVPMDVASYLYTGDSHQLKRANCSGRYELAGLPGKWPALASAHPSLHRALDTLTHATNFLNVMLQSNKSREQNLQDDLDWYQALVWSLLEGEPSISRAAITFSTDSLSAPAPQVFLQATREESRILLQDLSSSAPHLANATLETEWFHGLRRKWRPHLHRRGPNQGPRGLGHSWRRKDGLGGDKSHFKWSPPYLECENGSYKPGWLVTLSSAIYGLQPNLVPEFRGVMKVDINLQKVDIDQCSSDGWFSGTHKCHLNNSECMPIKGLGFVLGAYECICKAGFYHPGVLPVNNFRRRGPDQHISGSTKDVSEEAYVCLPCREGCPFCADDSPCFVQEDKYLRLAIISFQALCMLLDFVSMLVVYHFRKAKSIRASGLILLETILFGSLLLYFPVVILYFEPSTFRCILLRWARLLGFATVYGTVTLKLHRVLKVFLSRTAQRIPYMTGGRVMRMLAVILLVVFWFLIGWTSSVCQNLEKQISLIGQGKTSDHLIFNMCLIDRWDYMTAVAEFLFLLWGVYLCYAVRTVPSAFHEPRYMAVAVHNELIISAIFHTIRFVLASRLQSDWMLMLYFAHTHLTVTVTIGLLLIPKFSHSSNNPRDDIATEAYEDELDMGRSGSYLNSSINSAWSEHSLDPEDIRDELKKLYAQLEIYKRKKMITNNPHLQKKRCSKKGLGRSIMRRITEIPETVSRQCSKEDKEGADHGTAKGTALIRKNPPESSGNTGKSKEETLKNRVFSLKKSHSTYDHVRDQTEESSSLPTESQEEETTENSTLESLSGKKLTQKLKE
notes: signal peptide in the construct; human GPR158 residues 1-863, followed by a PreScission protease site, GFP and a Twin-Strep II tag; No PreScission cleavage is told for the purification of the complex
- stoichiometry N [2]: 2 protomers

Reference: publication PMC8611064, “Structure of the class C orphan GPCR GPR158 in complex with RGS7-Gβ5” (Nature Communications, 2021)
